# Measurements taken from US9951373B2, “Oplophorus-derived luciferases, novel coelenterazine substrates, and methods of use” (Promega Corporation, priority 2010, dated 2018).
# T1: caspase-3 (Homo sapiens, UniProt P42574)
# T1 sequence (P42574 29-175 limits assumed): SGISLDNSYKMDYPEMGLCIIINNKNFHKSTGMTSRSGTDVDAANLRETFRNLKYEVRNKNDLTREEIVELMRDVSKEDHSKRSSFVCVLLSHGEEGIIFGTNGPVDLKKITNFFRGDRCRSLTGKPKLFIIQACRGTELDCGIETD
# T1 sequence (P42574 176-277 limits assumed): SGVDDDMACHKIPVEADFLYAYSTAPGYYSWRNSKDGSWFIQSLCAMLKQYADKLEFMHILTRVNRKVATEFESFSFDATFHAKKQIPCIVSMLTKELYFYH
# B1: L27V: 9B8 opt+K33N variant with L27V, T39T, K43R, Y68D (SEQ ID NO: 89) (protein)
# chain: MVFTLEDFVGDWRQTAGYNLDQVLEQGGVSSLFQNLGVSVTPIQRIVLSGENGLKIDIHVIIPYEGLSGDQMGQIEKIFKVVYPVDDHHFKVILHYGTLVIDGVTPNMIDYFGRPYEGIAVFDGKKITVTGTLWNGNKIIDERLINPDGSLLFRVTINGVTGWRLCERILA
# What was measured:
# HEK293 cells [1] = experiment: Luminescence of OgLuc variants expressed in HEK293 cells; format: cell-based, human
# Procedure: (§1) The PCR library in the pF4Ag-based non-fusion background was screened for additional variants with increased luminescence compared to 9B8 opt+K33N+170G (SEQ ID NOs: 68 and 69). Selected variants were then assayed in HEK293 and NIH3T3 cells. For each cell type, 15,000 cells were plated and grown overnight at 37° C. The next day, the cells were transfected as described in Example 25 with 10 ng pGL4.13 (Promega Corp.) as a transfection control and 100 ng of the OgLuc test DNA. The media was removed, and the cells were lysed with 100 μL of lysis buffer as described in Example 25 except the lysis buffer contained 100 mM MES pH 6.0 instead of HEPES, and luminescence measured using a GLOMAX® Luminometer.
# (§2) Based on the above data, further combination variants were designed and generated (see Table 10) in the context of the pF4Ag-based non-fusion vector background without the 170G. The variants were analyzed in E. coli, HEK293 and NIH3T3 cells as described above and compared to 9B8 opt+K33N. The variants were also examined for luminescence with native coelenterazine.
# (§3) The brightness of the variants expressed in HEK293 and NIH3T3 cells was measured as described previously. The luminescence of the variants was normalized to the luminescence generated by 9B8 opt (Table 27).
# NIH3T3 cells [2] = experiment: Luminescence of OgLuc variants expressed in NIH3T3 cells; format: cell-based
# Procedure: as §1, §2, §3
# [3] = Km of L27V reversion variants, PBI-3939; format: biochemical
# Procedure: Relative activities <1 indicate the reversion is detrimental compared to the residue at that site in the L27V variant. Relative activities >1 indicate the reversion is favorable for activity compared to the residue at that site in the L27V variant. Some additional data on these mutants indicated the following: 166K, 54F, 54A and L27V were tested for thermal stability. The T1/2 60° C. for 166K, 54F, and 54A were 87, 74, and 33%, respectively, indicating these substitutions cause a reduction in thermal stability. […] This indicates higher substrate affinity for L27V, particularly for the position 54 substitutions.
# [4] = Thermal stability of OgLuc variants at 60° C.; format: physicochemical; details: 60° C., assay buffer MES pH 6.0
# Procedure: Aliquots were removed at different time-points and placed on dry ice to freeze the samples. […] Luminescence was measured on a GLOMAX® luminometer (Promega Corp.).
# The thermal stability of the variants at 60° C. was examined as described above, except the assay buffer contained 100 mM MES pH 6.0 instead of HEPES.
# HEK293 cells [5] = experiment: Luminescence in sandwich background, HEK293 cells; format: cell-based, human; details: non-sandwich versus sandwich
# Procedure: (§4) The PCR library in the Id-OgLuc-HT7 sandwich background was screened for additional variants with increased luminescence compared to 9B8 opt+K33N in sandwich background. Selected variants were then assayed in HEK293 and NIH3T3 cells. […] 1F7 (F) (SEQ ID NOs: 84 and 85) and 15H1 (F) (SEQ ID NOs: 86 and 87) had at least 1.3 fold-increase in luminescence in E. coli. 1F7 (F) was brighter than 9B8 opt+K33N in the sandwich background in HEK293 and NIH3T3 cells.
# (§5) The variants 9B8 opt+K33N+T39T+K43R+Y68D (“V2”; SEQ ID NOs: 92 and 93), 9B8 opt+K33N+L27V+K43R+Y68D (SEQ ID NOs: 339 and 340), 9B8 opt+K33N+L27V+T39T+K43R+S66N (SEQ ID NOs: 341 and 342), and 9B8 opt+K33N+L27V+T39T+K43R+Y68D (“L27V”; SEQ ID NOs: 88 and 89) were subcloned into the Id-OgLuc-HT7 sandwich background as described above and assayed in HEK293 and NIH3T3 cells as described above. The luminescence generated by the sandwiched variants were compared to the luminescence generated by the […] sandwich (SEQ ID NOs: 59 and 60) (Table 38). The L27V sandwich (SEQ ID NOs: 90 and 91) and V2 sandwich (SEQ ID NOs: 94 and 95) had at least 1.3× fold-increase in luminescence in HEK293 and NIH3T3 cells.
# (§6) The sandwich and non-sandwich versions of the variants V2, 9B8 opt+K33N+L27V+K43R+Y68D, 9B8 opt+K33N+L27V+T39T+K43R+S66N, and L27V were assayed in HEK293 and NIH3T3 cells as described in Example 37. The luminescence generated by the non-sandwiched variants was compared to the luminescence generated by the sandwiched variants (Table 39).
# NIH3T3 cells [6] = experiment: Luminescence in sandwich background, NIH3T3 cells; format: cell-based; details: non-sandwich versus sandwich
# Procedure: as §4, §5, §6
# caspase-3 [7] = biological target: T1, caspase-3; experiment: Bioluminescent caspase-3 assay with L27V variant; format: biochemical; details: luminescence, 3 hrs room temperature
# Procedure: (§7) 2. The L27V variant was used in a bioluminescent assay using a pro-coelenterazine substrate comprising the DEVD caspase-3 cleavage sequence. Purified caspase-3 enzyme (1 mg/mL) in 100 mM MES pH 6 (50 μL) was mixed with 227 nM L27V02 variant and 47 μM PBI-3741 (z-DEVD-coelenterazine-h) in assay buffer (50 μL). Reactions were incubated for 3 hrs at room temperature, and luminescence detected as previously described. The assay with the L27V variant was compared to a firefly luciferase version of the assay, CASPASE-GLO® 3/7-Assay system (Caspase-Glo; Promega Corp.).
# caspase-3 [8] = experiment: Bioluminescent caspase-3 assay with L27V variant; format: biochemical; details: luminescence, 3 hrs room temperature
# Procedure: as §7
# [9] = relative specificity for PBI-3939 compared to native coelenterazine
molecule,measurement,setting,value
B1,"luminescence normalized to 9B8 opt, HEK293",HEK293 cells [1]; PBI-3939,1.6
same,"Fold over 9B8 opt + K33N, HEK293","HEK293 cells [1]; luminescence, PBI-3939",0.8
same,"Fold over Native Coelenterazine, HEK293",HEK293 cells [1]; [9],97
same,"luminescence normalized to 9B8 opt, NIH3T3",NIH3T3 cells [2]; PBI-3939,1.6
same,"Fold over 9B8 opt + K33N, NIH3T3","NIH3T3 cells [2]; luminescence, PBI-3939",0.7
same,"Fold over Native Coelenterazine, NIH3T3",NIH3T3 cells [2]; [9],85
same,Km,[3],18 µM
same,1/2 life hours,[4],21.7 h
same,"Fold-decrease in luminescence in the presence of sandwich background, HEK 293",HEK293 cells [5],6
same,"Fold-decrease in luminescence in the presence of sandwich background, NIH 3T3 cells",NIH3T3 cells [6],18
same,(+) caspase,caspase-3 [7],"11,532"
same,(−) caspase,caspase-3 [8],803
